Here are results for 109 sequences from the supplement of paper PMC9942255.

The test system of the data set is Bacillus subtilis DB104 (SP-AmyQ fusion secretion). As to the kind of experiment: AmyQ secretion efficiency, weighted average sort bin (1 = best secretion, 10 = worst) (bin number (weighted average, 1-10)); higher = lower secretion efficiency. The gist of the method:
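In this assay, the secretion score is defined as the average bin number weighted by read frequency, normalised to beads per bin, with low-abundance sequences not counted. B. subtilis DB104 cells expressing mature AmyQ behind designed signal peptides (amyE-integrated) were enclosed with fluorescein-starch in ~65 nL alginate beads at about 0.3 cells per bead. Beads grew about 13 h at room temperature, were stained with nile red, and occupied beads went into 10 equally populated green/red fluorescence ratio bins by large-particle flow cytometry, whose amplicons were Illumina-sequenced.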

Where “and” joins values, the source holds several entries; their conditions need not be identical. Equal entries are not always repeated.

MHLIRAAGAVCLAVVLIAGCRFNEDQHQVEGENT: the AmyQ secretion efficiency stood at 4.66.

Regarding MKKRKVLMAFIICLSLILSVLAAPPSGAKAESV, the AmyQ secretion efficiency worked out at 1.28.

With MKWMCSICCAAVLLAGGAAQIEAV, the AmyQ secretion efficiency is 2.05.

The sequence MTKLKMLSMGKRRTASLFIFSSQALAVQY gave an AmyQ secretion efficiency of 7.8.

MKKVMLATALFLGLTPAGANIADL returned an AmyQ secretion efficiency of 6.67.

The sequence MKRLLVSLRVWMVFLMNWVTPDRKTAARAVY gave an AmyQ secretion efficiency of 5.96.

On to MKKQIITATTAVVLGSTLFAGALSAQSI, for which the AmyQ secretion efficiency worked out at 2.54.

The sequence MKKAFILSAAAAVGLFTFGGVQQASMKEL showed an AmyQ secretion efficiency of 5.04.

The sequence MKKKLAAGLTASAVTPAEAATI registered an AmyQ secretion efficiency of 6.26.

With MRQRKKAVFVIMISFLIATVNVNTAHAAID, the AmyQ secretion efficiency came out at 6.22.

In turn, MLGKIALTLCPAIVGSLLFFTAPASAHVS registered an AmyQ secretion efficiency of 2.47.

Consider MRMLWRSLALCGLALTLAPCAQCAEP, for which the AmyQ secretion efficiency is 3.11.

For MKKKLAAGLTASAIVGTTLVTTISAVTPAEAATI, the AmyQ secretion efficiency amounted to 2.98.

In turn, MLIRKRRNFKRFIAAFLVLALMISLVPADVLAKST returned an AmyQ secretion efficiency of 1.85.

Take MGRIKTKITILLVLLLLLAGGYMYIN: the AmyQ secretion efficiency was 5.89 and 6.33 and 5.86.

On to MTMLRKIIGWILLLCIIKKRRRRVIASGKEV, for which the AmyQ secretion efficiency is 7.19.

In the case of MKKKQVMLALTAAAGLGLTALHSAPAAKAADD, the AmyQ secretion efficiency stood at 3.53.

For the sequence MKRKLLSSLAISALSLGLLVSAPTATFAAES, the AmyQ secretion efficiency was determined as 3.04.

Take MKLAKRVSALTPSTTLAITFKAKEL: the AmyQ secretion efficiency was determined as 6.49.

The sequence MKKKLAAGLTASAIVGTTLVVTPAEEATI registered an AmyQ secretion efficiency of 6.94.

The sequence MKKTTTKYFMFGLVMGFSQFQPSTVFAADK showed an AmyQ secretion efficiency of 3.56.

Sequence MLKRTSFVSSSSLFISSAVLLSILLPSGQAHAQSA returned an AmyQ secretion efficiency of 1.71.

As for MRGKSIAVLLSLIMLIAGFLISFSFQM, the AmyQ secretion efficiency was 5.87.

On to “MGLGKKLSVAVAASFMSLSISLPGAVGPGFPTFPSVQAAEG”, for which the AmyQ secretion efficiency was determined as 1.21.

Sequence MKKKLAAGLTASAIVGTTLVVTPAEWATI showed an AmyQ secretion efficiency of 7.78.

Take MKKIVSILFMFGLVMGFSQFQPSTVFAASD: the AmyQ secretion efficiency turned out to be 1.84.

The sequence MKRIRIPMTLALGAALTIAPLSFYSAEEN showed an AmyQ secretion efficiency of 5.14.

Consider MNKKYFVLIVCIIFTSALFPTFSSCTAAQG, for which the AmyQ secretion efficiency turned out to be 1.18.

Sequence MRPVFPLILSAVLFLSCFFGARQTEASPSKR returned an AmyQ secretion efficiency of 2.1.

MRGKSAVLLSLIMLIAGFLQQSFSFQM registered an AmyQ secretion efficiency of 7.38.

MLCVMMLLFSAIASFPVSLQAKDQ returned an AmyQ secretion efficiency of 5.46.

MLCVMMLLFSAIAPDPSGAQAKDQ had an AmyQ secretion efficiency of 4.72.

Sequence MKKKRRRVLMAFIICLSLILSVLAAPPSGAKAESV displayed an AmyQ secretion efficiency of 2.

On to MKRLFMKASLVLFAVVFVFAVKGAPMKAETH, for which the AmyQ secretion efficiency came out at 1.95.

As for MKKAFILSAAAAVGLFTFGGVQQMSAKEL, the AmyQ secretion efficiency worked out at 2.71.

Regarding MKKWIYVVLVLSIAGIGGKRKKKKVHAASS, the AmyQ secretion efficiency was 7.49.

Sequence MKKAFLVFLSVVLVTTVFLVKQQESVAQGKQL showed an AmyQ secretion efficiency of 3.58.

As for MKKAAAVLLSLGLVFVFVYGAGHVAEAKTK, the AmyQ secretion efficiency worked out at 2.4.

In the case of MKKLVLCVSILAVILSGVQLTQLS, the AmyQ secretion efficiency was found to be 5.61.

In turn, MMIKQCRKCKRLLVFGTTAAHAEET registered an AmyQ secretion efficiency of 6.79.

For the sequence MKSKGSIMIFIFACLILFSFTITTFINTETISAFSN, the AmyQ secretion efficiency was determined as 7.77.

Turning to MRKKRVITCVMAASLTLGSLLPAGYCTAKED, the AmyQ secretion efficiency was determined as 3.9.

The sequence MLTKRLLTIYIMLLGLIAWFPGATVPAQAEEK had an AmyQ secretion efficiency of 2.86.

In turn, MPYLKRVLLLLVTGLFMSLAVTATASAQTG gave an AmyQ secretion efficiency of 1.16.

Take MKKWMITIAMLILAGIALFVFISPRKSHKT: the AmyQ secretion efficiency was found to be 4.44.

MRKYTVKRSILLSFLSVLSGGHHESKAFPV registered an AmyQ secretion efficiency of 6.95.

For MLTKRLLTIYIMLLGLIAWFPGAAQAEDE, the AmyQ secretion efficiency was 3.66.

Take MKKKLAAGLTASAIVGTTLVVTPAEYATI: the AmyQ secretion efficiency was 6.06.

On to MFKKLLLATSALTFSLSLVLRRKKKHAKAQEV, for which the AmyQ secretion efficiency stood at 5.87.

MKRMIVRMTLPLLIVCLAFSSFSASARCASE displayed an AmyQ secretion efficiency of 4.35.

As for MKKKLAAGLTASAIVGTTLVVTPTEAATI, the AmyQ secretion efficiency is 2.75.

As to MLKKIALTLCPAIVGSLLFFTDEDASAHVS, the AmyQ secretion efficiency was determined as 4.47.

For the sequence MRKKKWRVGLLAGCLAAGGFSYNAFATEN, the AmyQ secretion efficiency turned out to be 5.68.

For the sequence MHLIRAAGAVCLAVVLIAGCRITSIFFNEDQHQAEGENT, the AmyQ secretion efficiency was 6.96.

The sequence MRSYIKVLTMCFLGLILFVPTALFDNS yielded an AmyQ secretion efficiency of 7.14.

MLKRTSFVSSLFISSAVLLSILTPDGQAHAQSA showed an AmyQ secretion efficiency of 1.39.

MFKKHQRRQRIIFLLASAVLAKPIEAHTV yielded an AmyQ secretion efficiency of 6.33.

MKQFAITLSVLCALILLVPTLLVIPFQHNKEAKASV gave an AmyQ secretion efficiency of 5.85.

As to MFNRLFRVCFLAALIMAFTLPNSCYAQKP, the AmyQ secretion efficiency is 2.79.

The sequence MKVPKTMYQRRQAGLLLSLTATSVSAHYV gave an AmyQ secretion efficiency of 6.61.

MLCKRKRLFSAIASFPVSAQAKDQ showed an AmyQ secretion efficiency of 7.61.

MVKKWLIQFAVMLSVLSTFTYSASIVGV returned an AmyQ secretion efficiency of 8.01.

Sequence MLCVMMLLFSAIASFPVSAQVKDQ gave an AmyQ secretion efficiency of 5.88.

Sequence MPTKKKVMKCLAVTLVFGSMSFPTLTNSGGFKE returned an AmyQ secretion efficiency of 7.16.

The sequence MKKQIITATTAVVLGSTLFAKKRASAQSI yielded an AmyQ secretion efficiency of 7.26.

MKSKGSIMACLILFSFTITTFINTETISHFSN gave an AmyQ secretion efficiency of 7.54.

Take MKKKQVMLALTAAAGLGLTALGSAPAAKAAPL: the AmyQ secretion efficiency was 2.2.

Regarding MKLAKRVSALTPSTTLAITAKAAPD, the AmyQ secretion efficiency is 7.89.

“MKSRTIWTIILGALLVCSAASSCIAVAYTLTKSQAGASSS” gave an AmyQ secretion efficiency of 6.64.

The sequence MLKKKWMVGLLAGCLAAGGFSYNVFATEN registered an AmyQ secretion efficiency of 5.37.

Sequence MRHKIITFILAVVVIIIIGNMIGGGGGSEATSE registered an AmyQ secretion efficiency of 3.29.

In turn, MRKKRTVITCVMAASLTLGSLLPAGYATAKED yielded an AmyQ secretion efficiency of 6.07.

With MKKARRLSAAAAVGLFTFGGVQQASAKEL, the AmyQ secretion efficiency is 3.35.

MAIIIAIIAAVIVIAALITFRRRNASPG yielded an AmyQ secretion efficiency of 8.26.

The sequence MHLIRAAGAVCLAVVLIAGCRFNEDQHQLEGENT yielded an AmyQ secretion efficiency of 6.09.

In turn, MKSKWMSGLLLVAVGTQVMVHAGET had an AmyQ secretion efficiency of 5.76.

Consider MRKKRVKRCVMAASLTLGSLLPAGYASAKED, for which the AmyQ secretion efficiency came to 3.34.

Consider MKKRLIGFLVLVPALIMSGITLIEYNKK, for which the AmyQ secretion efficiency came to 9.98.

With MLKKKWMVGLLAGCLAAGGFSYNAFTTEN, the AmyQ secretion efficiency was determined as 6.95.

On to MGMKKKLSLGVASAALGLALVGRRKRKKTWAAFN, for which the AmyQ secretion efficiency stood at 6.59.

MPYLKRVLLLLVTGLFMSLFAVTATISAQTG came in with an AmyQ secretion efficiency of 1.51.

MKQFAITLSVLCALILLVPTLLVIPRRKKRHKKEAGASV: the AmyQ secretion efficiency amounted to 5.51.

In turn, MRKKRGYRCGMAASLTLGSLLPAGYASAKED came in with an AmyQ secretion efficiency of 6.63.

MMKKLFHSTLIVLLFFSFFGVQPIHAAKK: the AmyQ secretion efficiency is 1.9.

For MKRFLIGAGVAAVILSGWFIADHQKHSQEM, the AmyQ secretion efficiency worked out at 5.36.

Turning to MKRIRIPMTLALGAALTIAPLSFASAKKR, the AmyQ secretion efficiency stood at 3.26.

With MKKRKKKVSSLFISSAVLLSILLPSGQAHAQSA, the AmyQ secretion efficiency was determined as 1.03.

Consider MRMLWRSLALCGLALTLAPCTGTAQAAEP, for which the AmyQ secretion efficiency was determined as 1.82.

MKKRTIQVMIMFTLLLTMAFSADAADS registered an AmyQ secretion efficiency of 5.

MKRFILVLSFLSIIVAYPIQVNASPM: the AmyQ secretion efficiency is 3.06.

Consider MKLKSKLLLSCLALSTVFVATTIGNAPTH, for which the AmyQ secretion efficiency came out at 7.24.

As for MLKKKWMVGLLAGCLAAGGFSYNAFATPR, the AmyQ secretion efficiency is 3.48.

Sequence MKKQIITATTAVVLGSTLFAGAASSQSI gave an AmyQ secretion efficiency of 1.97.

For the sequence MKLSVKIAGVLTVAAAAMTAKMYATHKGN, the AmyQ secretion efficiency stood at 6.71.

MPIKKKVMMCTSGTTSFGSMSFPTLTNSGGFKE gave an AmyQ secretion efficiency of 7.09.

Sequence MKKRLIAPMLLSAASLAFFAMSGSAQFAAY yielded an AmyQ secretion efficiency of 6.43.

Regarding MKKWIYVVLVLSIAGIGGFSVHCASS, the AmyQ secretion efficiency amounted to 6.47.

In turn, MKKKLAAGLTASAIVGTTLVVAEAATI came in with an AmyQ secretion efficiency of 5.78.

Sequence MPYLKRVLLLLVTGLFMSLFAVTATRSAQTG displayed an AmyQ secretion efficiency of 3.54.

The sequence MKKRLIGFLVLVPALIMSGITLIENNKK had an AmyQ secretion efficiency of 6.74.

Sequence MKKTRQTLVILGALGTSYISADSS registered an AmyQ secretion efficiency of 5.19.

In turn, MNKKYFVLIVCIIFTSALFPTFSSVTLAQG displayed an AmyQ secretion efficiency of 2.52.

MMRTWNVCLTALLSVLLVAGSVPFHAEAKKP registered an AmyQ secretion efficiency of 3.23.

Consider MKNMSCKLVVSVTLFFSFLTIGPLAHAQNR, for which the AmyQ secretion efficiency was 1.47.

Sequence MKKVLMAFIICLSLILSVLAAAKAESV had an AmyQ secretion efficiency of 4.23.

As to MKIRKILLSSALSFGMLVISAVPALAAGT, the AmyQ secretion efficiency came to 2.24.

Regarding MKRLRRKRKKGIMLLTFAPSAFAKQD, the AmyQ secretion efficiency was found to be 7.07.

MRKKRVITCVMAASPAGYASAKED returned an AmyQ secretion efficiency of 7.41.

MKKWMAGLFLAAAVLLCLMVPQQYQGASS: the AmyQ secretion efficiency stood at 6.35.
